Laboratory results as given in patent US12269859B2, “Synthetic immune receptors and methods of use thereof” (Angeles Therapeutics, Inc., priority 2016, dated 2025).

Tested on: target antigen-expressing cell line
Experiment: Jurkat NFAT-GFP assay, coculture with target cell lines expressing the respective target antigen (summary Table 10A)
Type: cell-based, human
Set-up: key: The signs +/−, +, 2+ etc. after the name of the cell lines indicate the relative degree of positivity on the Jurkat-NFAT-GFP assay as measured by the % GFP positive cells; +: relative degree of positivity on the Jurkat-NFAT-GFP assay as measured by the % GFP positive cells; 2+: relative degree of positivity on the Jurkat-NFAT-GFP assay as measured by the % GFP positive cells
Details: relative % GFP positive cells; for NFAT-GFP ASSAY Positive Cell lines: RAJI: SIR-expressing Jurkat-NFAT-GFP cells cocultured with RAJI; for NFAT-GFP ASSAY Positive Cell lines: NALM6: SIR-expressing Jurkat-NFAT-GFP cells cocultured with NALM6
In short: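 Positivity is scored when SIR-expressing reporter Jurkat cells show more GFP-positive cells than parental controls after coculture with the antigen-bearing line. Effector-to-target ratio is about 1:2, coculture lasts roughly 4–18 hours, and GFP is quantified by FACS.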

B1: 041216 C02 (protein)
chain: MALPVTALLLPLALLLHAARPDEIVLTQSPATLSLSPGERATLSCSASSSVSYMHWYQQKPGQAPRLLIYDTSKLASGIPARFSGSGSGTDFTLTISSLEPEDVAVYYCFQGSVYPFTFGQGTKLEIKRGGGGSGGGGSGGGGSQVQLQESGPGLVKPSQTLSLTCTVSGGSISTSGMGVGWIRQHPGKGLEWIGHIWWDDDKRYNPALKSRVTISVDTSKNQFSLKLSSVTAADTAVYYCARMELWSYYFDYWGQGTLVTVSSLEGKPIPNPLLGLDSTGSGEDLKNVFPPEVAVFEPSKAEIAHTQKATLVCLATGFYPDHVELSWWVNGKEVHSGVCTDPQPLKEQPALNDSRYCLSSRLRVSATFWQNPRNHFRCQVQFYGLSENDEWTQDRAKPVTQIVSAEAWGRADCGITSASYHQGVLSATILYEILLGKATLYAVLVSALVLMAMVKRKDSRGRAKRSGSGATNFSLLKQAGDVEENPGPTSMALPVTALLLPLALLLHAARPDIQMTQSPATIENTSLSASVGDRVTITCRASQGISSWLTWYQQKPEKAPKSLIYAASSLQSGVPSRFSGSGSGTDFTLTISSLQPEDFATYYCQQYDSYPITFGQGTRLEIKGGGGSGGGGSGGGGSQVQLQQWGAGLLKPSETLSLTCAVYGGSFSAYYWSWIRQPPGKGLEWIGDINHGGGTNYNPSLKSRVTISVDTSKNQFSLKLNSVTAADTAVYYCASLTAYWGQGSLVTVSSTREQKLISEEDGSGIQNPDPAVYQLRDSKSSDKSVCLFTDFDSQTNVSQSKDSDVYITDKCVLDMRSMDFKSNSAVAWSNKSDFACANAFNNSIIPEDTFFPSSDVPCDVKLVEKSFETDTNLNFQNLSVIGFRILLLKVAGFNLLMTLRLWSSRAKRSGSGVKQTLNFDLLKLAGDVESNPGPSRGHMTEYKPTVRLATRDDVPRAVRTLAAAFADYPATRHTVDPDRHIERVTELQELFLTRVGLDIGKVWVADDGAAVAVWTTPESVEAGAVFAEIGPRMAELSGSRLAAQQQMEGLLAPHRPKEPAWFLATVGVSPDHQGKGLGSAVVLPGVEAAERAGVPAFLETSAPRNLPFYERLGFTVTADVEVPEGPRTWCMTRKPGA
modifications: Synthetic polynucleotide encoding a SIR
SIR-expressing Jurkat-NFAT-GFP cells cocultured with L428
  NFAT-GFP ASSAY Positive Cell lines: L428: L428 (+/−)

B2: 030217-E05 (protein)
chain: MALPVTALLLPLALLLHAARPDEIVLTQSPATLSLSPGERATLSCSASSSVSYMHWYQQKPGQAPRLLIYDTSKLASGIPARFSGSGSGTDFTLTISSLEPEDVAVYYCFQGSVYPFTFGQGTKLEIKRGGGGSGGGGSGGGGSQVQLQESGPGLVKPSQTLSLTCTVSGGSISTSGMGVGWIRQHPGKGLEWIGHIWWDDDKRYNPALKSRVTISVDTSKNQFSLKLSSVTAADTAVYYCARMELWSYYFDYWGQGTLVTVSSLEGKPIPNPLLGLDSTGSGEDLKNVFPPEVAVFEPSKAEIAHTQKATLVCLATGFYPDHVELSWWVNGKEVHSGVCTDPQPLKEQPALNDSRYCLSSRLRVSATFWQNPRNHFRCQVQFYGLSENDEWTQDRAKPVTQIVSAEAWGRADCGITSASYHQGVLSATILYEILLGKATLYAVLVSALVLMAMVKRKDSRGRAKRSGSGATNFSLLKQAGDVEENPGPTSTMALPVTALLLPLALLLHAARPDEIVLTQSPGSLAVSPGERVTMSCKSSQSVFFSSSQKNYLAWYQQIPGQSPRLLIYWASTRESGVPDRFTGSGSGTDFTLTISSVQPEDLAIYYCHQYLSSRTFGQGTKLEIKRGGGGSGGGGSGGGGSQVQLQQPGAEVVKPGASVKMSCKASGYTFTSYYIHWIKQTPGQGLEWVGVIYPGNDDISYNQKFQGKATLTADKSSTTAYMQLSSLTSEDSAVYYCAREVRLRYFDVWGQVTTVTVSSTREQKLISEEDGSGIQNPDPAVYQLRDSKSSDKSVCLFTDFDSQTNVSQSKDSDVYITDKCVLDMRSMDFKSNSAVAWSNKSDFACANAFNNSIIPEDTFFPSSDVPCDVKLVEKSFETDTNLNFQNLSVIGFRILLLKVAGFNLLMTLRLWSSRAKRSGSGVKQTLNFDLLKLAGDVESNPGPSRGHMTEYKPTVRLATRDDVPRAVRTLAAAFADYPATRHTVDPDRHIERVTELQELFLTRVGLDIGKVWVADDGAAVAVWTTPESVEAGAVFAEIGPRMAELSGSRLAAQQQMEGLLAPHRPKEPAWFLATVGVSPDHQGKGLGSAVVLPGVEAAERAGVPAFLETSAPRNLPFYERLGFTVTADVEVPEGPRTWCMTRKPGA
  NFAT-GFP ASSAY Positive Cell lines: RAJI: RAJI (+)

B3: 092515-Y08 (protein)
chain: MALPVTALLLPLALLLHAARPDEIVLTQSPATLSLSPGERATLSCSASSSVSYMHWYQQKPGQAPRLLIYDTSKLASGIPARFSGSGSGTDFTLTISSLEPEDVAVYYCFQGSVYPFTFGQGTKLEIKRGGGGSGGGGSGGGGSQVQLQESGPGLVKPSQTLSLTCTVSGGSISTSGMGVGWIRQHPGKGLEWIGHIWWDDDKRYNPALKSRVTISVDTSKNQFSLKLSSVTAADTAVYYCARMELWSYYFDYWGQGTLVTVSSLESWKDASGWSCTDPQPLKEQPALNDSRYCLSSRLRVSATFWQNPRNHFRCQVQFYGLSENDEWTQDRAKPVTQIVSAEAWGRADCGFTSESYQQGVLSATILYEILLGKATLYAVLVSALVLMAMVKRKDSRGRAKRSGSGATNFSLLKQAGDVEENPGPTSMALPVTALLLPLALLLHAARPDIQMTQTTSSLSASLGDRVTISCRASQDISKYLNWYQQKPDGTVKLLIYHTSRLHSGVPSRFSGSGSGTDYSLTISNLEQEDIATYFCQQGNTLPYTFGGGTKLEITTREQKLISEEDLSSCDVKLVEKSFETDTNLNFQNLSVIGFRILLLKVAGFNLLMTLRLWSSSSRAKRSGSGVKQTLNFDLLKLAGDVESNPGPSRGHMTEYKPTVRLATRDDVPRAVRTLAAAFADYPATRHTVDPDRHIERVTELQELFLTRVGLDIGKVWVADDGAAVAVWTTPESVEAGAVFAEIGPRMAELSGSRLAAQQQMEGLLAPHRPKEPAWFLATVGVSPDHQGKGLGSAVVLPGVEAAERAGVPAFLETSAPRNLPFYERLGFTVTADVEVPEGPRTWCMTRKPGA
modifications: Synthetic Immune Receptor (SIR)
  NFAT-GFP ASSAY Positive Cell lines: NALM6: RAJI (+), NALM6 (+)
  NFAT-GFP ASSAY Positive Cell lines: RAJI: RAJI (+), NALM6 (+)

B4: 102616-D06 (protein)
chain: MALPVTALLLPLALLLHAARPDVQMIQTPDSLAVSLGQRATISCRASESVDNYGISFMHWYQQKPGQSPKLLIYRASNLESGIPARFSGSGSRTDFTLTINPVETDDVATYYCQQNNKDPPTFGGGTKLEIKLEGKPIPNPLLGLDSTGSGEDLKNVFPPEVAVFEPSKAEIAHTQKATLVCLATGFYPDHVELSWWVNGKEVHSGVCTDPQPLKEQPALNDSRYCLSSRLRVSATFWQNPRNHFRCQVQFYGLSENDEWTQDRAKPVTQIVSAEAWGRADCGITSASYHQGVLSATILYEILLGKATLYAVLVSALVLMAMVKRKDSRGRAKRSGSGATNFSLLKQAGDVEENPGPTSMDWIWRILFLVGAATGAHSFEGGGGSQVQLQQSGAELVKPGASVKISCKASGYAFSSYWMNWVKQRPGKGLEWIGQIYPGDGDTTYNGKFKGKATLTADKSSSTVYMQLNSLTSEDSAVYFCVRYYYGSSGYFDYWGQGTTLTVSSTREQKLISEEDGSGIQNPDPAVYQLRDSKSSDKSVCLFTDFDSQTNVSQSKDSDVYITDKCVLDMRSMDFKSNSAVAWSNKSDFACANAFNNSIIPEDTFFPSSDVPCDVKLVEKSFETDTNLNFQNLSVIGFRILLLKVAGFNLLMTLRLWSSRAKRSGSGVKQTLNFDLLKLAGDVESNPGPSRGHMTEYKPTVRLATRDDVPRAVRTLAAAFADYPATRHTVDPDRHIERVTELQELFLTRVGLDIGKVWVADDGAAVAVWTTPESVEAGAVFAEIGPRMAELSGSRLAAQQQMEGLLAPHRPKEPAWFLATVGVSPDHQGKGLGSAVVLPGVEAAERAGVPAFLETSAPRNLPFYERLGFTVTADVEVPEGPRTWCMTRKPGA
modifications: Synthetic Immune Receptor (SIR)
SIR-expressing Jurkat-NFAT-GFP cells cocultured with LAN5
  NFAT-GFP ASSAY Positive Cell lines: LAN5: LAN5 (+)

B5: 010417-B04 (protein)
chain: MALPVTALLLPLALLLHAARPLEGKPIPNPLLGLDSTGSGEDLKNVFPPEVAVFEPSKAEIAHTQKATLVCLATGFYPDHVELSWWVNGKEVHSGVCTDPQPLKEQPALNDSRYCLSSRLRVSATFWQNPRNHFRCQVQFYGLSENDEWTQDRAKPVTQIVSAEAWGRADCGITSASYHQGVLSATILYEILLGKATLYAVLVSALVLMAMVKRKDSRGRAKRSGSGATNFSLLKQAGDVEENPGPTSTMALPVTALLLPLALLLHAARPDEIVLTQSPATLSLSPGERATLSCSASSSVSYMHWYQQKPGQAPRLLIYDTSKLASGIPARFSGSGSGTDFTLTISSLEPEDVAVYYCFQGSVYPFTFGQGTKLEIKRGGGGSGGGGSGGGGSQVQLQESGPGLVKPSQTLSLTCTVSGGSISTSGMGVGWIRQHPGKGLEWIGHIWWDDDKRYNPALKSRVTISVDTSKNQFSLKLSSVTAADTAVYYCARMELWSYYFDYWGQGTLVTVSSTREAAAKDDIVMTQSPDSLTVSLGERTTINCKSSQSVLDSSKNKNSLAWYQQKPGQPPKLLLSWASTRESGIPDRFSGSGSGTDFTLTIDSLQPEDSATYYCQQSAHFPITFGQGTRLEIKGGGGSGGGGSGGGGSQVQLVQSGAEVKKPGASVKVSCKASGYTFTNYGMNWVKQAPGQGLKWMGWINTYTGEPTYADDFKGRVTMTSDTSTSTAYLELHNLRSDDTAVYYCARWSWSDGYYVYFDYWGQGTTVTVSSTREQKLISEEDGSGIQNPDPAVYQLRDSKSSDKSVCLFTDFDSQTNVSQSKDSDVYITDKCVLDMRSMDFKSNSAVAWSNKSDFACANAFNNSIIPEDTFFPSSDVPCDVKLVEKSFETDTNLNFQNLSVIGFRILLLKVAGFNLLMTLRLWSSRAKRSGSGVKQTLNFDLLKLAGDVESNPGPSRGHMTEYKPTVRLATRDDVPRAVRTLAAAFADYPATRHTVDPDRHIERVTELQELFLTRVGLDIGKVWVADDGAAVAVWTTPESVEAGAVFAEIGPRMAELSGSRLAAQQQMEGLLAPHRPKEPAWFLATVGVSPDHQGKGLGSAVVLPGVEAAERAGVPAFLETSAPRNLPFYERLGFTVTADVEVPEGPRTWCMTRKPGA
SIR-expressing Jurkat-NFAT-GFP cells cocultured with HL60
  NFAT-GFP ASSAY Positive Cell lines: HL60: +/−
  NFAT-GFP ASSAY Positive Cell lines: NALM6: +
  NFAT-GFP ASSAY Positive Cell lines: RAJI: RAJI (+), NALM6
